Assay results from PMC3110719.
Read-outs that look alike come from different tables or passages of the source.

Tested on: Nc1ncnc2c1ncn2[C@@H]1O[C@H](COP(=O)(O)OP(=O)(O)OP(=O)(O)O)[C@@H](O)[C@H]1O
Test: purified protein

Substance	Km (1 µM MsbA, 0-1 mM ATP, 30 min) [µM]	Km [µM]
MsbA (Escherichia coli K-12; D512G)	122 ± 29	
MsbA (Escherichia coli K-12; L511P)		23 ± 12
